To fix the notation:
B3: Shigella flexneri SctR (Spa24) (natural protein)
chain: MLSDMSLIATLSFFTLLPFLVAAGTCYIKFSIVFVMVRNALGLQQVPSNMTLNGIALIMALFVMKPIIEAGYENYLNGPQKFDTISDIVRFSDSGLMEYKQYLKKHTDLELARFFQRSEEENADLKSAENNDYSLFSLLPAYALSEIKDAFKIGFYLYLPFVVVDLVISSILLALGMMMMSPITISVPIKLVLFVALDGWGILSKALIEQYINIPA
notes: Spa24 (SctR), export gate component of the Shigella flexneri virulence type three secretion system; expressed from the complete operon; Five copies stand in the SctR5S4T1 complex

Data set [1] concerns the molecule itself. As to the kind of experiment: cryo-EM structure; re-refinement of the original S. Typhimurium FliPQR data (Kuhlen, Abrusci et al. 2018) in RELION-3 with particle polishing and per-particle CTF refinement, 3.65 Å; coordinates remodeled and re-refined.
For data set [2], the target named is T1, Salmonella enterica serovar Typhimurium FliR (Salmonella enterica serovar Typhimurium, UniProt P54702 1-264).
T1 construct: FliR, flagellar export gate component of Salmonella enterica serovar Typhimurium; source: expression of the complete operon
T1 sequence: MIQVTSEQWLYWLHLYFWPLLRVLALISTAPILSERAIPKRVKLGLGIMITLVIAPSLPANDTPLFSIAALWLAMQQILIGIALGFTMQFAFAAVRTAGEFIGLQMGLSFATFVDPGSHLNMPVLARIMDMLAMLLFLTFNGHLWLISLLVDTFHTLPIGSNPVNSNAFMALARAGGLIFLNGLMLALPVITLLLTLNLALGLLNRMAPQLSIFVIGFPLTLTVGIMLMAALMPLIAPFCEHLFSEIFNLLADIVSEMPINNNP
The description is as above. The settings on record: both partners purified.

The target in data set [3] is B3. As to the kind of experiment: cryo-EM structure; SctRST complex co-expressed from one operon and purified by the strep tag on SctT; 0.01% LMNG in TBS (100 mM Tris, 150 mM NaCl, 1 mM EDTA, pH 8), 8.4 mg/ml; single particle cryoEM, RELION-3, 3.5 Å; further 3D classification gives classes with 2, 3 or 4 SctS. As to conditions: both partners purified.
For data set [4], the target named is T2, Shigella flexneri SctT (Spa29) (Shigella flexneri, UniProt P0A1M6 1-256).
T2 construct: Spa29 (SctT), export gate component of the Shigella flexneri virulence type three secretion system; expressed from the complete operon; One copy stands in the complex; not shown: dual-strep tag, C-terminal, kept
T2 sequence: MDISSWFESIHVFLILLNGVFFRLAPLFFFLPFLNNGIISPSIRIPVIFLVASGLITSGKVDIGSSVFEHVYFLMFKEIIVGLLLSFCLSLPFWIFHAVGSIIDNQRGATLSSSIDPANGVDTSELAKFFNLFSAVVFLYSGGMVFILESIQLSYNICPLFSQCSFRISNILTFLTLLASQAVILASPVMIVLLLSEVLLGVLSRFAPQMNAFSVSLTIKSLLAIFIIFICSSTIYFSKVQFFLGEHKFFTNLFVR
Described as above. The settings on record: both partners purified.

Consider four molecules from doi:10.1101/590273, “The structure of an injectisome export gate demonstrates conservation of architecture in the core export gate between flagellar and virulence type three secretion systems” (bioRxiv, 2019).

Values joined by “and” are separate entries in the source; they are usually repeats but may differ in a detail not shown here. Identical values can stand only once.

B1: Salmonella enterica serovar Typhimurium FliP (natural protein)
chain: QLPGLISQPLAGGGQSWSLSVQTLVFITSLTFLPAILLMMTSFTRIIIVFGLLRNALGTPSAPPNQVLLGLALFLTFFIMSPVIDKIYVDAYQPFSEQKISMQEALDKGAQPLRAFMLRQTREADLALFARLANSGPLQGPEAVPMRILLPAYVTSELKTAFQIGFTIFIPFLIIDLVIASVLMALGMMMVPPATIALPFKLMLFVLVDGWQLLMGSLAQSFYS
notes: FliP, flagellar export gate component of Salmonella enterica serovar Typhimurium; source: expression of the complete operon
With B1, the binding result in data set [1] and in data set [2] was “binds” throughout.

B2: Shigella flexneri SctS (Spa9) (natural protein)
chain: MSDIVYMGNKALYLILIFSLWPVGIATVIGLSIGLLQTVTQLQEQTLPFGIKLIGVSISLLLLSGWYGEVLLSFCHEIMFLIKSGV
notes: Spa9 (SctS), export gate component of the Shigella flexneri virulence type three secretion system; expressed from the complete operon; Two to four copies stand in the complexes seen (SctR5S2T1, SctR5S3T1, SctR5S4T1)
As to B2, the binding result in data set [3] is on record as “binds”. In addition, the “stoichiometry N” value in data set [4] was 4 and 2 and 3.

On to B3, for which the binding result in data set [4] is listed as “binds”.

B4: Salmonella enterica serovar Typhimurium FliQ (natural protein)
chain: MTPESVMMMGTEAMKVALALAAPLLLVALITGLIISILQAATQINEMTLSFIPKIVAVFIAIIVAGPWMLNLLLDYVRTLFSNLPYIIG
notes: FliQ, flagellar export gate component of Salmonella enterica serovar Typhimurium; source: expression of the complete operon
With B4, the binding result in data set [2] is on record as “binds”.
